Binding result and Kd data for 13 molecules are collected here from US20210246195A1 (CZ BIOHUB SF, published 2021).

Like-named read-outs stand apart in the source and are kept apart here.

Test [1] addresses T1, purified recombinant allergen Aspergillus fumigatus 1 (rAsp f 1) (Aspergillus fumigatus, UniProt P67875 28-176).
T1 sequence: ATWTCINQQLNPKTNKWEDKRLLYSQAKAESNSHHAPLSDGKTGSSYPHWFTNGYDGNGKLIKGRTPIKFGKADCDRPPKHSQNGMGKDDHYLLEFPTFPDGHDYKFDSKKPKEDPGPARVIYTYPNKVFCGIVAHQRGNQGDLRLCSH
The test is described as follows: indirect ELISA (FIG. 19).

Test [2] has as its target T2, BSA (UniProt P02769 25-607).
T2 construct: also called bovine serum albumin; immobilized BSA
The test is described as follows: indirect ELISA, OD heat map.

Test [3] concerns the target T2, BSA. The test is described as follows: indirect ELISA, OD heat map. The source holds these as a separate data set.
Test [4] has as its target T3, Ara h 3 (purified natural peanut allergen) (Arachis hypogaea).
T3 construct: mature; bought natural protein; also called natural Ara h 3; NA-AH3-1
The test is described as follows: BLI, antibody on anti-human IgG Fc sensors, Ara h 3 as analyte, top 16 nM.

The target in test [5] is T4, Ara h 1 (purified natural peanut allergen) (Arachis hypogaea, UniProt P43238 26-626).
T4 construct: mature; bought natural protein; also called natural Ara h 1; NA-AH1-1
T4 sequence (looked up): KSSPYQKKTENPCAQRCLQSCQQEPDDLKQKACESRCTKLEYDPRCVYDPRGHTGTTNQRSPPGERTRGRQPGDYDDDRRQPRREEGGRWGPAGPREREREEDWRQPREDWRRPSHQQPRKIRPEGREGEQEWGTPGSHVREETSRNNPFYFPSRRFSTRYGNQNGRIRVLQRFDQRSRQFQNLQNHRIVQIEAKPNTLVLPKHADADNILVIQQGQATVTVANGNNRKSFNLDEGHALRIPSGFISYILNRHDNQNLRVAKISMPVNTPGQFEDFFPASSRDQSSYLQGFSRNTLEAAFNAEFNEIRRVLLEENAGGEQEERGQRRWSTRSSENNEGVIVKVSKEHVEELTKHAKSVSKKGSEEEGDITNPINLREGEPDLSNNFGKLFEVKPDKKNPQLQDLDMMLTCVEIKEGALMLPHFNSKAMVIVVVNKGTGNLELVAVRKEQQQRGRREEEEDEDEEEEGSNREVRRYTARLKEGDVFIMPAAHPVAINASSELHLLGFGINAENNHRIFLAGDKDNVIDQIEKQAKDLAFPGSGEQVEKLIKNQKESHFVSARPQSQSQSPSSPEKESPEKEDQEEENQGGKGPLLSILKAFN
The test is described as follows: indirect ELISA, OD heat map.

Test [6] addresses T3, Ara h 3 (purified natural peanut …). The test is described as follows: BLI, antibody on anti-human IgG Fc sensors, Ara h 3 as analyte, top 64 nM.
For test [7] the target is unchanged. The test is described as follows: BLI, antibody on anti-human IgG Fc sensors, Ara h 3 as analyte, top 32 nM.
Test [8] deals with T1, purified recombinant allergen …. The test is described as follows: indirect ELISA, OD heat map.
The target of test [9] is T4, Ara h 1 (purified natural peanut …). The test is described as follows: indirect ELISA.
Test [10] has as its target T3, Ara h 3 (purified natural peanut …). The test is described as follows: BLI, antibody on anti-human IgG Fc sensors, Ara h 3 as analyte, top 512 nM.
Test [11] shares this target. The test is described as follows: BLI, scatter plot of KDs; the diamond lies on the axis line labelled >10^-7.
Test [12] shares this target. The test is described as follows: BLI, antibody on anti-human IgG Fc sensors, Ara h 3 as analyte, top 128 nM.

T2 sequence (P02769 25-607 limits assumed): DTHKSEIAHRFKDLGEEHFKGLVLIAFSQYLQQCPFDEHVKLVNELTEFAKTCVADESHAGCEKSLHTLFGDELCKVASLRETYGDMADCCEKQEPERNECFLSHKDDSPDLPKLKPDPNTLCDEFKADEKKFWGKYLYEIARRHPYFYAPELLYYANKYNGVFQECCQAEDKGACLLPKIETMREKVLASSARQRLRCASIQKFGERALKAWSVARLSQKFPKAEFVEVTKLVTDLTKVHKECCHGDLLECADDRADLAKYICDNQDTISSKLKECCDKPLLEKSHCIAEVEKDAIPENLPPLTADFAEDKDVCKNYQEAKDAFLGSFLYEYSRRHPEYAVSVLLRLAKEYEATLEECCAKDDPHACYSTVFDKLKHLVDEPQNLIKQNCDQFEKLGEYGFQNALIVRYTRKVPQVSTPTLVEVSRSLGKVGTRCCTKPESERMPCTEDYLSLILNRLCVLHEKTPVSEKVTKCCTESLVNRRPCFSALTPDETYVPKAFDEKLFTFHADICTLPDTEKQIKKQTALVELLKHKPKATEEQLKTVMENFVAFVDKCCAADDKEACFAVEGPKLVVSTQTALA

B1: 1003320107_F3 (antibody, V domains shown)
VH: QVQLQESGPGLVKPSETLSLSCNVSGGSIRGHYWSWIRQSPGKRLEWLGYIYQSGYTKYNPSLKSRVSISLDTSKNKFSLNLKSVTTADTAVYYCAGRVAERGGDQFDFWGQGTLVTVSS
VL: SYELTQSPSLSVSPGQTASITCSGENLGEKHASWYQQKSGQSPVLVIYQDTKRPAGIPERFSGSNSGSTATLTISGTQPMDEADYFCQAWDANTANVIFGGGTMLTVL
notes: also called Clone 1003320107_F3
For the molecule B1, the binding result is on record as “binds” in [1] and “no binding (tested: 2 ng/µL)” with BSA [2].

B2: PA13P1H08 (antibody, human IgG1, V domains shown)
VH: QVQLVNSGGGVVQPGRSLRLSCVASGFTFSTFGIHWVRQAPGKGLEWVAVISNDGEKSESADSVKGRFTPSRDNSKNTVYLQMNNLRVEDTAVYYCAKVLDYSRYSYYYGMDVWGQGTTVIVSS
VL: EIVLTQSPGTLSLSPGGRGTLSCRTSQTINNAHLAWYQHKPGQAPRLLIYGSSERATGVPDRFSGSGSGSDFTLTISSLEAEDFAVYYCQHYGRSPPYTFGPGTKLDIK
notes: human IgG1, kappa; also called Clone PA13P1H08; N-N
As for B2, in the test with BSA [3], the binding result is given as “no binding (tested: 2 ng/µL)”. Moreover, the Kd in test [4] amounted to 0.3 nM.

B3: PA13P1H08 variant N-R (antibody, V domains shown)
VH: QVQLVNSGGGVVQPGRSLRLSCVASGFTFSTFGIHWVRQAPGKGLEWVAVISNDGEKSESADSVKGRFTPSRDNSKNTVYLQMNNLRVEDTAVYYCAKVLDYSRYSYYYGMDVWGQGTTVIVSS
VL: not shown
notes: human IgG1, kappa; also called native heavy chain, reverted light chain
For B3, the binding result (in test [5]; with BSA [3]) was “no binding (tested: 2 ng/µL)” in each case. Binding in test [6] was characterised by a dissociation constant (Kd) of 7.4 nM.

B4: PA13P1H08 variant with native heavy chain and light chain swapped with another kappa light chain (antibody, human IgG1, V domains shown)
VH: QVQLVNSGGGVVQPGRSLRLSCVASGFTFSTFGIHWVRQAPGKGLEWVAVISNDGEKSESADSVKGRFTPSRDNSKNTVYLQMNNLRVEDTAVYYCAKVLDYSRYSYYYGMDVWGQGTTVIVSS
VL: EIVLTQSPATLSLSPGERATLSCRASQSVSSYLAWYQQKPGQAPRLLIYDASNRATGIPARFSGSGSGTDFTLTISSLEPEDFAVYYCQQRSNWPPGFTFGPGTKVDIK
notes: human IgG1, kappa
With B4, the binding result (in test [5]; with BSA [3]) was “no binding (tested: 2 ng/µL)” throughout.

B5: PA13P1H08 variant R-N (antibody, human IgG1, V domains shown)
VH: QVQLVESGGGVVQPGRSLRLSCAASGFTFSSYGMHWVRQAPGKGLEWVAVISYDGSNKYYADSVKGRFTISRDNSKNTLYLQMNSLRAEDTAVYYCAKVLDYSNYYYYYGMDVWGQGTTVTVSS
VL: EIVLTQSPGTLSLSPGGRGTLSCRTSQTINNAHLAWYQHKPGQAPRLLIYGSSERATGVPDRFSGSGSGSDFTLTISSLEAEDFAVYYCQHYGRSPPYTFGPGTKLDIK
notes: human IgG1, kappa; also called reverted heavy chain, native light chain
On to B5, for which, in the test with BSA [3], the binding result is given as “no binding (tested: 2 ng/µL)”. Also, the Kd in test [7] is 0.89 nM.

B6: PA13P1H08 variant rFWRs-N (antibody, human IgG1, V domains shown)
VH: QVQLVESGGGVVQPGRSLRLSCAASGFTFSTFGMHWVRQAPGKGLEWVAVISNDGEKSYYADSVKGRFTISRDNSKNTLYLQMNSLRAEDTAVYYCAKVLDYSRYSYYYGMDVWGQGTTVTVSS
VL: EIVLTQSPGTLSLSPGGRGTLSCRTSQTINNAHLAWYQHKPGQAPRLLIYGSSERATGVPDRFSGSGSGSDFTLTISSLEAEDFAVYYCQHYGRSPPYTFGPGTKLDIK
notes: human IgG1, kappa; also called heavy chain framework regions reverted
In the case of B6, the binding result with BSA [3] is listed as “no binding (tested: 2 ng/µL)”. This molecule gave a Kd in test [7] of 3.2 nM.

B7: 1003320107_F8 (antibody, V domains shown)
VH: EVQLVESGGGLVQPGGSLKLSCAASGFTFSGSTIHWVRQTSGKGLEWVGRIGSKATSYATAYAASVKGRFTISRDDSKNTAYLQMNSLKTEDTAVYFCTRRYYDTTKSVLVVSDSWGQGTLVTVSS
VL: SYELTQPPSMSVSPGQTARITCSGDVLAKQFAYWYQQKPGQAPVLVIYKDSERPSGIPERFSGSSSGTIITLTISGVQAEDEADYYCQSADSSGTSWVFGGGTKLTVL
notes: also called Clone 1003320107_F8
As for B7, the binding result (in test [8]; with BSA [2]) was “no binding (tested: 2 ng/µL)” in each case.

B8: 1003320105_D6 (antibody, V domains shown)
VH: EVQLLESGGGLVQPGGSLRLSCAASGFNFSNFAVSWVRQTPGKGLEWVSAILGSRSVTYYADSVKGRFTISRDKSKNALYLQMDSLRAEDTAIYYCAKLFFMPYSHDDSGDYWGQGTLVAVSS
VL: QLVLTQSPSASASLGASVKLTCTLSSDHRSYAIAWHQQQPGKGPRYLMKVNRDGSHIKGDGIPHRFSGSSSVTERYLIISSLQSEDEADYYCQSWDTGIQVFGGGTRLTVV
notes: also called Clone 1003320105_D6
Take B8: the binding result (in test [8]; with BSA [2]) was “no binding (tested: 2 ng/µL)” throughout.

B9: PA15P1D05 (antibody, human IgG1, V domains shown)
VH: QVHLVESGGGVVQPGRSLGLSCVASGFTFNYYAIHWVRQAPGKGLEWVAVVSFDGNIIYYADSVKGRFNISRDNSKNTVNLQMNSLRPDDTAVYYCVRDGEYCSGGNCYWGDFDHWGQGSLVTVSP
VL: EIVLTQSPATLSLSPGERATLSCRASQSISSEYLTWFQQKPGQAPRLLIYGAFNRATGIPDRFSGSGSGTDFTLTISSLEPEDFAVYYCQQYANWWTFGQGTKVEIK
notes: human IgG1; also called CF3 IgE PB antibody
Take B9: in test [9], the binding result is given as “no binding”. For the same molecule, in test [10], the affinity, expressed as Kd, was 2 nM.

B10: PA15P1D12 (antibody, human IgG1, V domains shown)
VH: QVHLVESGGGVVQPGRSLGLSCAASGFTFNYYAIHWVRQAPGKGLEWVAVVSFDGNIIYYADSVKGRFNISRDNSKNTVNLQMNSLRADDTAVYYCVRDGEYCSGGNCYWGDFDYWGQGTLVTVSP
VL: EIVLTQSPGTLSLSPGERATLSCRASQSISSEYLTWFQQKPGQAPRLLIYGAFNRATGIPDRFSGSGSGTDFTLTISSLEPEDFAVYYCQQYANWWTFGQGTKVEIK
notes: human IgG1; also called CF3 IgG4 PB antibody
For B10, in test [9], the binding result is recorded as “no binding”. In addition, the Kd in [10] was 1.1 nM.

B11: PA13P1H08 variant R-R (antibody, V domains shown)
VH: QVQLVESGGGVVQPGRSLRLSCAASGFTFSSYGMHWVRQAPGKGLEWVAVISYDGSNKYYADSVKGRFTISRDNSKNTLYLQMNSLRAEDTAVYYCAKVLDYSNYYYYYGMDVWGQGTTVTVSS
VL: not shown
notes: human IgG1, kappa; also called both chains reverted to the inferred naive rearrangement
As to B11, the binding result (in [5]; with BSA [3]) was “no binding (tested: 2 ng/µL)” in each case. The Kd in test [11] and in test [12] was more than 100 nM throughout.

B12: 1003320107_C5 (antibody, V domains shown)
VH: QVQLQESGLGLVKPSGTLSLTCAVSGGPMNSSYWWSWVRQSPGGGLEWIGQISHYTNTKYNPSFKNRVSISIDKSKNEFSLRLTYVTGADTGVYYCVGERDWKDPNWFDPWGQGRLVTVSS
VL: QSVLTQPPSVSGAPGQRVTISCTGSNSNIGAGQDVHWYQHFPGTAPKLVIYGNSNRPSGVPDRFSGSKSGTSASLAISGLQADDEADYYCQSYDKSLSSSLFGGGTKLTVL
notes: also called Clone 1003320107_C5
As to B12, the binding result in test [1] is “binds”; with BSA [2], “no binding (tested: 2 ng/µL)”.

B13: 1003320101_D6 (antibody, V domains shown)
VH: EVQLVASGGGLIHPGGSLRLSCEASGFSFSRFWMYWVRQSPGEGLVWVARLSGDGTVTNYADSMEGRVTISRDNVKNTLFLEMNSLREGDTGIYYCARKDCPSLSCQLDYWGQGVQVTVSS
VL: QSVLTQPPSVSAAPGQKVTISCSGSTSNIGKNYVSWYQHFPGAAPKLLIFDNDKRPSGIPDRFSGSRSGTSATLDITGLQTGDEADYFCATWDSRLSADVFGSGTTVSVL
notes: also called Clone 1003320101_D6
Turning to B13, the binding result (in [8]; with BSA [2]) was “no binding (tested: 2 ng/µL)” in each case.
